Like-named read-outs stand apart in the source and are kept apart here.
Legend:
[1] = biological target: SARS-CoV-2 Sclamp (SARS-CoV-2) (UniProt P0DTC2)
[2] = biological target: SARS-CoV-2 Sclamp (SARS-CoV-2) (UniProt P0DTC2); assay: characterization of the lead candidate; ELISA per paragraph 282
[3] = biological target: SARS-CoV-2 Sclamp (SARS-CoV-2) (UniProt P0DTC2); assay: ELISA on purified antigen, antibody titrated
[4] = biological target: SARS-CoV-2-foldon (SARS-CoV-2) (UniProt P0DTC2); assay: ELISA on purified antigen, antibody titrated

For CB6 (antibody), the Kd [1] was 0.15 nM.
Work on CR3022 (antibody) yielded a Kd [1] of 0.13 nM and a Kd [2] of 0.3 nM.
DH1047 (antibody) gave an EC50 (read off the curve) [3] of 0.3 nM and an EC50 (read off the curve) [4] of 0.4 nM.
Work on S309 (antibody) yielded a Kd [1] of 0.08 nM.
huCR3022 (antibody) showed an EC50 (read off the curve) [3] of 0.6 nM and an EC50 (read off the curve) [4] of 0.6 nM.
